Source: patent US20240084041A1

Target: MET on NCI-H596 cells (MET exon14 skip mutation) (human) (UniProt P08581)
Assay: cell-based or functional assay

- Relative Cell Growth (n = 3), NCI-H596 in soft agar, 100 ng/mL, two weeks (relative to control (no treatment)): 7.88
Substance: hepatocyte growth factor (HGF) (from UniProt P14210 32-728) (ligand)
